Where two headings read alike, the source gives them in different places.

Experiment in all cases: cell-based or functional assay
The target in one experiment is IL2Rαβγ on CTLL2 cells.
Experiment [1] concerns the target IL2Rβ and common γ chain on 32Dβ cells.
Experiment [2] has the same target. This is another data set of the same source.
For experiment [3], the target named is TGFβ1 (R&D systems) (UniProt P01137).
Experiment [4] has the same target. The source holds these as a separate data set.

Chain of UniProt P01137 (P01137 279-390 limits assumed): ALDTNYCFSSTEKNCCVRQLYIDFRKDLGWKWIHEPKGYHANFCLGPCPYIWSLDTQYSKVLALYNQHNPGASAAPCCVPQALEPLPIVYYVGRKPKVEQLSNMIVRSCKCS

In the experiment with IL2Rαβγ on CTLL2 cells, “human recombinant IL-15 (from UniProt P40933 49-162) (ligand)” displayed an EC50, CTLL2 cell proliferation (PrestoBlue) of 0.00495 nM and an EC50, CTLL2 cell proliferation (WST1) of 0.00622 nM. Also, in experiment [1], the EC50 (printed EC:), 32Dβ cell proliferation (WST1) came to 0.0166 nM and the EC50, 32Dβ cell proliferation (WST1) was found to be 0.0166 nM. In addition, the EC50, 32Dβ cell proliferation (WST1) in experiment [2] was 0.0106 nM.
In the case of “Human recombinant TGFβRII/Fc (from UniProt P37173 24-159) (Fc fusion)”, the IC50, inhibition of TGFβ1 activity in HEK-Blue TGFβ cells in the experiment with TGFβ1 (R&D systems) [3] was found to be 0.461 nM; in the experiment with TGFβ1 (R&D systems) [4] it was 0.559 nM.

The record behind these values is patent publication US20240124543A1.
